This note sets out measurements from US5969094A, “Anti-paramyxovirus screening method and vaccine” (Emory University, priority 1996, dated 1999).

Substitutions are numbered along the chain they refer to.

To fix the notation:
T1: SN-F, fusion glycoprotein of Sendai virus (Sendai virus (SN), UniProt P04855)
T1 sequence: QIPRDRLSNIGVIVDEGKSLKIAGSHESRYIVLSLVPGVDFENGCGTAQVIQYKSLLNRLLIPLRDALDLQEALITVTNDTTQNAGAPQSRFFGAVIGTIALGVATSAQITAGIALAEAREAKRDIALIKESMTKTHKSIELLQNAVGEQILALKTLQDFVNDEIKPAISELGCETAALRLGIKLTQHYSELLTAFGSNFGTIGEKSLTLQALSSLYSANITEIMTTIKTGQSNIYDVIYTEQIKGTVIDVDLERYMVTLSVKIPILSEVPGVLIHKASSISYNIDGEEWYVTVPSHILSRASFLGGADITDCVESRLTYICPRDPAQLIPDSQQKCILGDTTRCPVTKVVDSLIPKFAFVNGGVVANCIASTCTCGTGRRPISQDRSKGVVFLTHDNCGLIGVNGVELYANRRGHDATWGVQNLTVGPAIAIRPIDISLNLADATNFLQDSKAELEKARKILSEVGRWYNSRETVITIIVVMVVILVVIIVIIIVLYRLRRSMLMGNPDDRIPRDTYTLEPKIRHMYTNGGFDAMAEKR

T2: SN-F (Sendai virus, UniProt P04855)
T2 sequence (P04855 117-565 limits assumed): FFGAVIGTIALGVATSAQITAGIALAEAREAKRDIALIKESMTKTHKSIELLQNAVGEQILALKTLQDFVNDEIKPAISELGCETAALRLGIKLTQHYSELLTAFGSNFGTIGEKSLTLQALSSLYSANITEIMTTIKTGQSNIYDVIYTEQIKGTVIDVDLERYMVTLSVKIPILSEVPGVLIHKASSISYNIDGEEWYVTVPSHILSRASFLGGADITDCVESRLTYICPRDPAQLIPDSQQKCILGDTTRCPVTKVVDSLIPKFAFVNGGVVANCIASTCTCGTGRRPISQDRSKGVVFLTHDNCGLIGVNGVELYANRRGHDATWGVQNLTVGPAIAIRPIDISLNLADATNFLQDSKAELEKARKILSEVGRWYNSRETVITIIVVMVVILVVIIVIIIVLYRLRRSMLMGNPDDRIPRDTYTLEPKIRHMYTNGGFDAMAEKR
T2 sequence (P04855 26-116 partner limits assumed): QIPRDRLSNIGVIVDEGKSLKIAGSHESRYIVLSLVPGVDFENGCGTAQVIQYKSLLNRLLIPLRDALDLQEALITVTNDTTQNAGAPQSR

B1: SN(27-140) chimeric HN protein (other)
chain: MEYWKHTNHGKDAGNELETSMATHGNWERSSKADTWLLILSFTQWALSIATVIICIIISARQGYSMKEYSMTVEALNMSSREVKESLTSLIRQEVIARAVNIQSSVQTGIPVLLNKNSRDVIQMIDKSCSRQELTQHCESRITHDVGIKPLNPDDFWRCTSGLPSLMKTPKIRLMPGPGLLAMPTTVDGCVRTPSLVINDLIYAYTSNLITRGCQDIGKSYQVLQIGIITVNSDLVPDLNPRISHTFNINDNRKSCSLALLNTDVYQLCSTPKVDERSDYASSGIEDIVLDIVNHDGSISTTRFKNNNISFDQPYAALYPSVGPGIYYKGKIIFLGYGGLEHPINENAICNTTGCPGKTQRDCNQASHSPWFSDRRMVNSIIVVDKGLNSIPKLKVWTISMRQNYWGSEGRLLLLGNKIYIYTRSTSWHSKLQLGIIDITDYSDIRIKWTWHNVLSRPGNNECPWGHSCPDGCITGVYTDAYPLNPTGSIVSSVILDSQKSRVNPVITYSTSTERVNELAIRNKTLSAGYTTTSCITHYNKGYCFHIVEINHKSLDTFQPMLFKTEIPKSCS
B2: SN(140) chimeric HN protein (other)
chain: MDGDRGKRDSYWSTSPSGSTTKPASGWERSSKADTWLLILSFTQWALSIATVIICIIISARQGYSMKEYSMTVEALNMSSREVKESLTSLIRQEVIARAVNIQSSVQTGIPVLLNKNSRDVIQMIDKSCSRQELTQHCESRITHDVGIKPLNPDDFWRCTSGLPSLMKTPKIRLMPGPGLLAMPTTVDGCVRTPSLVINDLIYAYTSNLITRGCQDIGKSYQVLQIGIITVNSDLVPDLNPRISHTFNINDNRKSCSLALLNTDVYQLCSTPKVDERSDYASSGIEDIVLDIVNHDGSISTTRFKNNNISFDQPYAALYPSVGPGIYYKGKIIFLGYGGLEHPINENAICNTTGCPGKTQRDCNQASHSPWFSDRRMVNSIIVVDKGLNSIPKLKVWTISMRQNYWGSEGRLLLLGNKIYIYTRSTSWHSKLQLGIIDITDYSDIRIKWTWHNVLSRPGNNECPWGHSCPDGCITGVYTDAYPLNPTGSIVSSVILDSQKSRVNPVITYSTSTERVNELAIRNKTLSAGYTTTSCITHYNKGYCFHIVEINHKSLDTFQPMLFKTEIPKSCS
B3: SN(137) chimeric HN protein (other)
chain: B2 chain with C138P, E139P, S140Q
B4: SN(59-140) chimeric HN protein (other)
chain: MEYWKHTNHGKDAGNELETSMATHGNKITNKITYILWTIILVLLSIVFIIVLINSIKSSARQGYSMKEYSMTVEALNMSSREVKESLTSLIRQEVIARAVNIQSSVQTGIPVLLNKNSRDVIQMIDKSCSRQELTQHCESRITHDVGIKPLNPDDFWRCTSGLPSLMKTPKIRLMPGPGLLAMPTTVDGCVRTPSLVINDLIYAYTSNLITRGCQDIGKSYQVLQIGIITVNSDLVPDLNPRISHTFNINDNRKSCSLALLNTDVYQLCSTPKVDERSDYASSGIEDIVLDIVNHDGSISTTRFKNNNISFDQPYAALYPSVGPGIYYKGKIIFLGYGGLEHPINENAICNTTGCPGKTQRDCNQASHSPWFSDRRMVNSIIVVDKGLNSIPKLKVWTISMRQNYWGSEGRLLLLGNKIYIYTRSTSWHSKLQLGIIDITDYSDIRIKWTWHNVLSRPGNNECPWGHSCPDGCITGVYTDAYPLNPTGSIVSSVILDSQKSRVNPVITYSTSTERVNELAIRNKTLSAGYTTTSCITHYNKGYCFHIVEINHKSLDTFQPMLFKTEIPKSCS
B5: SN(44-140) chimeric HN protein (other)
chain: MEYWKHTNHGKDAGNELETSMATHGNKITNKITYILWTIILVLQWALSIATVIICIIISARQGYSMKEYSMTVEALNMSSREVKESLTSLIRQEVIARAVNIQSSVQTGIPVLLNKNSRDVIQMIDKSCSRQELTQHCESRITHDVGIKPLNPDDFWRCTSGLPSLMKTPKIRLMPGPGLLAMPTTVDGCVRTPSLVINDLIYAYTSNLITRGCQDIGKSYQVLQIGIITVNSDLVPDLNPRISHTFNINDNRKSCSLALLNTDVYQLCSTPKVDERSDYASSGIEDIVLDIVNHDGSISTTRFKNNNISFDQPYAALYPSVGPGIYYKGKIIFLGYGGLEHPINENAICNTTGCPGKTQRDCNQASHSPWFSDRRMVNSIIVVDKGLNSIPKLKVWTISMRQNYWGSEGRLLLLGNKIYIYTRSTSWHSKLQLGIIDITDYSDIRIKWTWHNVLSRPGNNECPWGHSCPDGCITGVYTDAYPLNPTGSIVSSVILDSQKSRVNPVITYSTSTERVNELAIRNKTLSAGYTTTSCITHYNKGYCFHIVEINHKSLDTFQPMLFKTEIPKSCS
B6: SN(54-140) chimeric HN protein (other)
chain: B4 chain with N54I, S55C, K57I, S58I
B7: PI3-HN: wild type human parainfluenza type 3 virus HN protein (protein)
chain: MEYWKHTNHGKDAGNELETSMATHGNKITNKITYILWTIILVLLSIVFIIVLINSIKSEKAHESLLQDVNNEFMEVTEKIQMASDNINDLIQSGVNTRLLTIQSHVQNYIPISLTQQMSDLRKFISEITIRNDNQEVPPQRITHDVGIKPLNPDDFWRCTSGLPSLMKTPKIRLMPGPGLLAMPTTVDGCVRTPSLVINDLIYAYTSNLITRGCQDIGKSYQVLQIGIITVNSDLVPDLNPRISHTFNINDNRKSCSLALLNTDVYQLCSTPKVDERSDYASSGIEDIVLDIVNHDGSISTTRFKNNNISFDQPYAALYPSVGPGIYYKGKIIFLGYGGLEHPINENAICNTTGCPGKTQRDCNQASHSPWFSDRRMVNSIIVVDKGLNSIPKLKVWTISMRQNYWGSEGRLLLLGNKIYIYTRSTSWHSKLQLGIIDITDYSDIRIKWTWHNVLSRPGNNECPWGHSCPDGCITGVYTDAYPLNPTGSIVSSVILDSQKSRVNPVITYSTSTERVNELAIRNKTLSAGYTTTSCITHYNKGYCFHIVEINHKSLDTFQPMLFKTEIPKSCS
B8: SN-HN: wild type Sendai virus hemagglutinin-neuraminidase (HN) protein (protein)
chain: MDGDRGKRDSYWSTSPSGSTTKPASGWERSSKADTWLLILSFTQWALSIATVIICIIISARQGYSMKEYSMTVEALNMSSREVKESLTSLIRQEVIARAVNIQSSVQTGIPVLLNKNSRDVIQMIDKSCSRQELTQHCESTIAVHHADGIAPLEPHSFWRCPVGEPYLSSDPEISLLPGPSLLSGSTTISGCVRLPSLSIGEAIYAYSSNLITQGCADIGKSYQVLQLGYISLNSDMFPDLNPVVSHTYDINDNRKSCSVVATGTRGYQLCSMPTVDERTDYSSDGIEDLVLDVLDLKGRTKSHRYRNSEVDLDHPFSALYPSVGNGIATEGSLIFLGYGGLTTPLQGDTKCRTQGCQQVSQDTCNEALKITWLGGKQVVSVIIQVNDYLSERPKIRVTTIPITQNYLGAEGRLLKLGDRVYIYTRSSGWHSQLQIGVLDVSHPLTINWTPHEALSRPGNKECNWYNKCPKECISGVYTDAYPLSPDAANVATVTLYANTSRVNPTIMYSNTTNIINMLRIKDVQLEAAYTTTSCITHFGKGYCFHIIEINQKSLNTLQPMLFKTSIPKLCKAES

One series has as its target T1, SN-F, fusion glycoprotein of Sendai …. In words: cell-based or functional assay.
For B1, the “Fusion activity (%), β-galactosidase production in the fusion dependent reporter gene activation assay” value (from here on “Fusion activity (%)”) is 79.7 % of SN-HN wt with SN-F.
Turning to B2, the “Fusion activity (%)” value is 44.6 % of SN-HN wt with SN-F.
On the same count and under the same terms, as for B3, the figure is 0 % of SN-HN wt with SN-F; as for B4, 8.82 % of SN-HN wt with SN-F; as for B5, 88.7 % of SN-HN wt with SN-F.
As to B6, the “Fusion activity (%)” value is 55.3 % of SN-HN wt with SN-F.

The target of a further series is T2, SN-F.
Assay: not given
It is filed as cell-based.
As to B1, the “cell fusion / syncytium formation with SN-F observed by microscopy” value (from here on “cell fusion / syncytium formation”) is “Syncytium formation was observed”.
Take B2: the “Relative fusion promoting activity b/a” value was determined as 0.66 and the “cell fusion / syncytium formation” value was “lower level of syncytium formation”.
For B3, the “fusion promoting activity, percentage of wild type SN-HN” value was “did not show any significant fusion promoting activity”.
For B4, the “Relative fusion promoting activity b/a” value was found to be 0.11 and the “fusion promoting activity, percentage of wild type SN-HN” value worked out at 8.8%.
Take B7: the “Fusion activity (5)” value is recorded as 3.47, the “Relative fusion promoting activity b/a” value was 0.03 and the “cell fusion / syncytium formation” value is reported as “no cell fusion was observed”.
With B5, the “Relative fusion promoting activity b/a” value stood at 0.70.
For the molecule B6, the “Relative fusion promoting activity b/a” value worked out at 0.42.
Regarding B8, the “Fusion activity (5)” value stood at 100.00, the “Relative fusion promoting activity b/a” value came out at 0.61 and the “cell fusion / syncytium formation” value is recorded as “Extensive cell fusion”.

For a further series, the system named is guinea pig erythrocytes.
Assay: not given
It is filed as cell-based.
Regarding B1, the “HAD activity as percentage of wild type SN-HN hemadsorption” value (from here on “HAD activity as percentage”) is “comparable or higher HAD activity than that of SN-HN” and the “hemadsorption observed under the microscope” value (“hemadsorption observed” for short) was “high levels of hemadsorption”.
Taken in the same sequence, the figures for B2 were “comparable or higher HAD activity than that of SN-HN” and “high levels of hemadsorption”.
For B3, the “HAD activity as percentage” value was determined as 27.5% and the “hemadsorption observed” value is “lower activities”.
Regarding B4, the “HAD activity as percentage” value is recorded as “comparable or higher HAD activity than that of SN-HN” and the “hemadsorption observed” value is “high levels of hemadsorption”.
For B5, the “HAD activity as percentage” value is reported as “comparable or higher HAD activity than that of SN-HN” and the “hemadsorption observed” value was “high levels of hemadsorption”.
B6: the “HAD activity as percentage” value was “comparable or higher HAD activity than that of SN-HN” and the “hemadsorption observed” value is “high levels of hemadsorption”.
Regarding B8, the “hemadsorption observed” value is “high levels of hemadsorption”.

The test system of another series is HeLa-T4 cells.
Assay: not given
It is filed as cell-based.
In the case of B1, the “Cell surface expression (%)” value came out at 75.6%.
Consider B2, for which the “Cell surface expression (%)” value is reported as 68.1%.
Turning to B4, the “Cell surface expression (%)” value was determined as 82.3%.
B7: the “Cell surface expression (%)” value is 100.0%.
On the same count and under the same terms, as for B5, the figure is 126.6%.
As for B6, the “Cell surface expression (%)” value is on record as 131.5%.
Consider B8, for which the “Cell surface expression (%)” value amounted to 163.9%.
